Values belong to the substance of their own block, whether it stands above or below them.
Assays:
[1] = test system: R182W p55 (human); experiment: EMSA; settings: EMSA in triplicate as previously described (ref 22); buffer, salt, pH and temperature not given in the material
[2] = test system: WT p55 (Pol gamma accessory subunit) (human); experiment: EMSA; settings: EMSA in triplicate as previously described (ref 22); buffer, salt, pH and temperature not given in the material
[3] = target: Exonuclease-deficient (Exo-) p140 catalytic subunit of DNA polymerase gamma (POLG) (human) (UniProt P54098); experiment: DNA polymerase activity titration (formation of active holoenzyme); holoenzymes preassembled on ice in EDB (50 mM Tris-HCl pH 7.5, 10% glycerol, 1 mM EDTA, 1 mM 2-ME, 100 mM KCl, 0.005% NP-40) with constant 2.5 nM p140 and 0-25 nM p55; activity on poly(rA)•oligo(dT)12-18 at 220 mM NaCl, 37°C, 9 min; apparent Kd from activity against the concentration of p55 dimer
[4] = target: p55 (Homo sapiens) (UniProt Q9UHN1); settings: cited from earlier work

p55, sequence (Q9UHN1 2-485): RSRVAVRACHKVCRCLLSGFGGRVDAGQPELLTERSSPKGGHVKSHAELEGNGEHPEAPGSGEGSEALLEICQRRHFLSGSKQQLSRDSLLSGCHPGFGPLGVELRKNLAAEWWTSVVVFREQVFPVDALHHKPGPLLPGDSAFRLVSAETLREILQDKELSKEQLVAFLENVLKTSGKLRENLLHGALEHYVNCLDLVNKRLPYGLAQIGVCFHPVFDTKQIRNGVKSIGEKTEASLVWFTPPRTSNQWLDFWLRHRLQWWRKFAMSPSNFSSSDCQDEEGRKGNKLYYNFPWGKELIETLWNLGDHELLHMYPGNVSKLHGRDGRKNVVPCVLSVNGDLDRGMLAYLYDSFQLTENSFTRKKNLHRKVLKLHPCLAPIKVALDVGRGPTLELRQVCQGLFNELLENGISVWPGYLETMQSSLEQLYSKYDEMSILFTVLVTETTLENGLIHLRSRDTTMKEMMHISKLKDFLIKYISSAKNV

Substance: 47-nucleotide double-stranded DNA oligomer
Kd [1]: 84.2 nM
Kd [2]: 89.6 nM

Kd [3]: 0.11 nM
Substance: R182W p55 accessory subunit of DNA polymerase gamma (POLG2 Chr17: 62492543G>A) (natural protein)

Kd [3]: 0.35 nM
Substance: Wild-type p55 accessory subunit of DNA polymerase gamma (POLG2) (natural protein)

Substance: p55 (from UniProt Q9UHN1)
Kd [4]: < 0.1 nM
